# Measurements as given in patent US11932673B2, “Sodium channel inhibitors” (priority 2017, dated 2024).
# T1: huASIC1a (Homo sapiens, UniProt P78348)
# T1 sequence (P78348 whole entry, looked up): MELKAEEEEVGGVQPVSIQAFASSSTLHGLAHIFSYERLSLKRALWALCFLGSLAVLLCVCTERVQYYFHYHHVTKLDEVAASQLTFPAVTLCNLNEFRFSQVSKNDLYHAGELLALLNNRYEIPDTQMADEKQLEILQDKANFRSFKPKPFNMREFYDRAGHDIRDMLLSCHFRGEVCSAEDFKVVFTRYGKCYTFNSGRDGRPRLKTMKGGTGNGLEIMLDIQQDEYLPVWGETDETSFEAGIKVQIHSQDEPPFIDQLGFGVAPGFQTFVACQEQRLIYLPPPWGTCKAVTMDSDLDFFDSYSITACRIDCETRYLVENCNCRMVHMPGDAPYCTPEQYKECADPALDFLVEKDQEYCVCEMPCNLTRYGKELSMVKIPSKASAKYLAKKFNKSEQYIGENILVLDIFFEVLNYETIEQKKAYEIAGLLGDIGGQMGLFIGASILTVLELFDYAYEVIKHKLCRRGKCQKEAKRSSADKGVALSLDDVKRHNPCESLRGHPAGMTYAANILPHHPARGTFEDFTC
# Legend:
# huASIC1a = target: T1, huASIC1a; assay: QPatch automated whole-cell patch-clamp on HEK293 cells stably expressing huASIC1a; assay type: cell-based; conditions: pH 6.0 activation after 15-20 min pre-incubation; concentration μM: KB_A07_PcTx1 6.6, KB_A12_PcTx1 5, KB_A12_Mba-1 3, KB_A12_Mba-2 2.3, KB_A07 6, KB_A12 3.3
# Experimental: Knottin Kv 1.3 and ASIC1a blockers expressed in the KnotBody format (see examples 6 and 7) were tested for their ability to inhibit the function of the ion channel targets. The effect of these KnotBodies on cells expressing the human Kv 1.3 (huKv1.3) or human ASIC1a channels was assessed using QPatch automated whole-cell patch-clamp electrophysiology (Sophion).
# To functionally assess the ASIC1a KnotBodies, HEK293 cells stably expressing huASIC1a (Sophion) were analysed using a QPatch electrophysiology assay in the presence or absence of the KnotBody fusions (using KB_A12 as a recipient and replacing the original EETI-II donor as shown in Table 8). The “parental” KB_A12 with the EETI-II donor was used as a negative control. Internal and external physiological solutions were freshly prepared prior to the assay. […]
# At the end of each KnotBody incubation and subsequent ASIC1a current activation, a full blocking concentration (300 nM) of the ASIC1a knottin inhibitor PcTx1 (positive control) was perfused onto the cell recording and a final activating pH 6.0 external solution was applied. The percentage remaining signal between activating pH 6.0 baseline (i.e. pre-KnotBody) and post-KnotBody incubation was determined.
# trypsin = assay: Phage trypsin binding assay, KB_A12 versus EETI-II cow ULVC-Ab; conditions: PEG precipitated phage, 12.5x and 0.5x
# From the text: Bovine antibodies have been described with natural ultra-long VH CDR3s containing a solvent exposed double stranded antiparallel sheet approximately 20 A° in length (referred to as the stalk) presenting a folded domain stabilised by 3 disulfide bonds (referred to as the Knob)^10. Zhang and colleagues have shown that the Knob domains of these cow ultra-long VH CDR3 antibodies (ULVC-Ab) can be replaced with other folded proteins such as erythropoietin^13. In this example, we assess the ability of a cow ULVC-Ab to present functional knottin fusions on phage in comparison with a KnotBody. In order to create a Knottin-cow UCLA fusion, the sequence between the first and the last cysteines of the knob region of the Cow ULVC-Ab BLV1H12 was replaced with the sequence of the trypsin binding knottin; EETI-II (EETI-II cow ULVC-Ab). A gene fragment encoding this construct was synthesised (Integrated DNA technologies, Table 21). This synthetic gene was cloned into the phage display vector pSANG4 using restriction sites NcoI and NotI and transformed into E. coli TG1 cells. […] In this assay, the binding of phage rescued from EETI-II cow ULVC-Ab and KB_A12 to trypsin was detected using an anti-M13 antibody followed by europium conjugated anti-mouse antibody (as described in example 3).
molecule,measurement,setting,value
"KB_A12: EETI-II VL CDR2 KnotBody, D1A12 VH, VL SEQ ID NO: 105/373; parental/isotype control (antibody, V domains shown) VH: EVQLVESGGGLVRPGGSLRLSCAASGFTFSSYAMSWVRQAPGKGLEWVSAISGSGGSTYYADSVKGRFTISRDNTKNSLYLQMTSLRADDTAFYYCVKDFGPGYGTGWFDYWGPGTLVTVSS VL: QSVLTQPPSVSEAPRQRVTITCSGSSSNIGNNAVNWYQQLPGKAPKLLIYAAGRCPRILMRCKQDSDCLAGCVCGPNGFCGANSGVSDRFSAAKSGTSASLAINGLRSEDEADYYCAAWDDSLNGYVFGTGTKLTVLG",% current remaining,huASIC1a,67.4%
same,phage binding to trypsin,trypsin,superior binding to trypsin compared to the EET-II-Cow ULVC-Ab fusion
